Measured values: patent US12416018B2, “Regulation of gene expression by aptamer-mediated modulation of alternative splicing” (MEIRAGTX GENE REGULATION LIMITED, priority 2015, dated 2025)
Residue numbers refer to the chain shown, from its start. “Also recorded” adds a separate entry of the source. Like-named read-outs stand apart in the source and are kept apart here.

What was measured:
[1] = system: luciferase expression in HEK 293 cells; assay type: cell-based; settings: for fold induction of luciferase expression over un-induced baseline: 500 µM; for induced luciferase level as percent of Con1 (maximal expression): guanine treatment (500 μM), HEK 293 cells
Method: Xpt-guanine aptamer with the following sequence: cactcatataat[…]cgact atgggtg (SEQ ID NO.: 10), was used to construct a riboswitch. Oligos containing the sequence of guanine aptamer and hairpin stem with 4 nucleotide 5′ overhang were synthesized (IDT), annealed and then ligated to BsaI-digested DHFR-acceptor vector. HEK 293 cells were transfected as described in Example 1. Four hours after transfection, the media was aspirated, and new media with or without 500 μM guanine was added. Luciferase expression was assayed 20 to 24 hrs after guanine treatment as described in Example 1 and Example 4. HepG2, AML12, RD and C2C12 (ATCC) were cultured using the protocol recommended by ATCC. The intron-exon-intron cassette containing the xpt-G17 riboswitch (SEQ ID NO.: 15) was inserted in the leader peptide sequences of the anti-KDR antibody gene and into the Stul site in mouse erythropoietin gene using Gibson cloning strategy (NEB). Constructs containing mouse erythropoietin (Epo) or anti-KDR antibody were transfected into HEK 293 cells. Four hour after transfection, the media was aspirated, and new media with or without 500 μM guanine was added. Supernatants were subjected to ELISA assay for the production of either anti-KDR antibody or the production of mouse Epo (R&D Systems).
Constructs were made using Golden Gate cloning strategy (NEB). […] Luciferase activity was assayed as described in Example 5.
The Con1 construct was used as a template for PCR amplification of intron fragments that have either upstream or downstream intron deletions. To generate constructs that have single intron deletions, PCR products were cloned into the constructs containing the xpt-G17 riboswitch using Golden Gate cloning strategy (NEB). To generate constructs with both upstream and downstream intron deletions, fragments released by EcoRI and BamHI from constructs with single deletions in the downstream intron sequence were cloned into EcoRI and BamHI-digested constructs with single deletions in the upstream intron sequence.
Sequences of mutant human Wilms tumor 1 exon 5 (mutWT1-e5, SEQ ID NO.: 61), SIRT1 exon 6 (SIRT1-e6, SEQ ID NO.: 62), mouse calcium/calmodulin-dependent protein kinase II delta exon 16, or 17 (Camk2d-e16 or e17, SEQ ID NOs.: 59, 60), and synthetic exon ENEEE (SEQ ID NO.: 63) were synthesized (IDT) and cloned into the DHFR-G17 vector in place of the DHFR exon using Gibson Cloning kit (NEB). Plasmid DNA was transfected into HEK 293 cells, treated with 500 μM guanine, and luciferase assay performed as described in Example 1. The sequences of each exon with 5′ and 3′ splice sites are shown with exonic sequences in uppercase letters (Table 5, SEQ ID NOS.: 59 to 63).

[2] = system: firefly luciferase gene expression in HEK 293 cells; assay: Firefly luciferase assay of HEK 293 cells transfected with splicing / Intron-Exon-Intron constructs (no ligand); assay type: cell-based
Method: Transfection: 3.5×10^4 HEK 293 cells were plated in 96-well flat bottom plate the day before transfection. Plasmid DNA (500 ng) was added to a tube or a 96-well U-bottom plate. Separately, TransIT-293 reagent (Mirus; 1.4 uL) was added to 50 μL Opti-mem I media (Life Technologies), and allowed to sit for 5 minutes at room temperature (RT). Then, 50 μL of this diluted transfection reagent was added to the DNA, mixed, and incubated at room temperature (“RT”) for 20 min. Finally, 7 μL of this solution was added to a well of cells in the 96-well plate.
Firefly luciferase assay of cultured cells: 24 hours after media change, plates were removed from the incubator, and equilibrated to RT for several minutes on a lab bench, then aspirated. Glo-lysis buffer (Promega, 100 μL, RT) was added, and the plates allowed to remain at RT for at least 5 minutes. Then, the well contents were mixed by 50 μL trituration, and 20 μL of each sample was mixed with 20 μL of bright-glo reagent (Promega) that had been diluted to 10% in glo-lysis buffer. 96 wells were spaced on an opaque white 384-well plate. Following a 5 min incubation at RT, luminescence was measured using Tecan machine with 500 mSec read time. The luciferase activity was expressed as mean relative light unit (RLU)±S.D.
The constructs were verified by DNA sequencing (Genewiz). DNA was transfected in HEK 293 cells and assayed for luciferase activity as described in Example 1.
Sequences containing the DHFR exon 2 with native 3′ and 5′ ss sequences, in which the 5′ss was embedded in a hairpin structure were synthesized (IDT), and cloned into the indicated vector using Golden Gate cloning strategy (NEB). Constructs were transfected into HEK 293 cells and assayed for luciferase activity as described in Example 1.

DHFR_G16: luciferase construct with xpt-guanine aptamer cassette, truncated stem (chain 1 GTAGAAGGTAATGTTAT; chain 2 CTAACATTACGCAC; chemistry not fully specified)
fold induction of luciferase expression over un-induced baseline [1]: about 800 fold | induced luciferase level as percent of Con1 (maximal expression) [1]: 83%

DHFR_G14: luciferase construct with xpt-guanine aptamer cassette, truncated stem (chain 1 GTAGAAGGTAATGTGATAT; chain 2 CTATCACATTACGCAC; expressed or natural sequence)
induced luciferase level as percent of Con1 (maximal expression) [1]: ~100%

DHFR_G15: luciferase construct with the xpt-G15 containing regulatory cassette (SEQ ID NO: 46) (chain 1 GTAGAAGGTAATGTGTAT; chain 2 CTACACATTACGCAC; chemistry not fully specified)
fold induction of luciferase expression over un-induced baseline [1]: 60 fold | induced luciferase level as percent of Con1 (maximal expression) [1]: ~100%

B1: DHFR_wt: Con 1 with wild type human DHFR exon 2, native 5′ss; SEQ ID NO: 47 (nucleic acid)
DNA: GAGTAACGCTGTTTCTCTAACTTGTAGGAATGAATTCAGATATTTCCAGAGAATGACCACAACCTCTTCAGTAGAAGGTAATGTG
modifications: expressed or natural sequence
fold lower luciferase expression compared with Con 1 [2]: 116 fold

B2: DHFR_wtStrSC35: DHFR exon 2 with stronger SC35 binding site; SEQ ID NO: 52 (nucleic acid)
DNA: B1 DNA with A33G, A34C, T35C, T36C, A38T
modifications: expressed or natural sequence
fold lower luciferase expression compared with Con 1 [2]: 139 fold

B3: DHFR_wtmtSRp40: DHFR exon 2 with mutated SRp40 binding site; SEQ ID NO: 51 / 58 (nucleic acid)
DNA 1: B1 DNA with C57A, C58A, C60A, C63A, C64A
DNA 2: GAGTAACGCTGTTTCTCTAACTTGTAGGAATGAATTCAGATATTTCCAGAGAATGAAAAAAAAATCTTCAGTAGAAGGTAATGT
modifications: expressed or natural sequence
fold lower luciferase expression compared with Con 1 [2]: 2,982 fold | luciferase expression relative to control constructs (in words) [2]: does not express luciferase | fold lower luciferase expression compared with Con 1 ([2]; listed as DHFR_mtSRp40): 2982 fold

B4: DHFR_wtSC35hnRNPA1: DHFR exon 2, SC35 site replaced by hnRNP A1 binding site; SEQ ID NO: 53 (nucleic acid)
DNA: B1 DNA with A33T, T35G, T36G, C37G
modifications: expressed or natural sequence
fold increase in luciferase expression compared to the wild type DHFR exon 2 [2]: 4.3 fold | luciferase expression relative to control constructs (in words) [2]: increased luciferase expression

B5: DHFR_Con45ss: DHFR exon 2 with weak 5′ss from Con 4; SEQ ID NO: 50 (nucleic acid)
DNA: B1 DNA with A75G, A80G, A81T, T82G
modifications: expressed or natural sequence
luciferase expression relative to control constructs (in words) [2]: luciferase expression is increased

B6: DHFR_Con15ss: DHFR exon 2 with 5′ss from Con 1; SEQ ID NO: 49 (nucleic acid)
DNA: B1 DNA with A76G, A80G, T82G, G83T
modifications: expressed or natural sequence
fold lower luciferase expression compared with Con 1 [2]: 545 fold | luciferase expression relative to control constructs (in words) [2]: abolishes luciferase expression compared to Con 1; also recorded: efficiently suppresses luciferase expression

B7: DHFR_wt5ssC: DHFR exon 2 with native 5′ss four nucleotides mutated to C; SEQ ID NO: 48 (nucleic acid)
DNA: B1 DNA with G78C, T79C, A80C, A81C
modifications: expressed or natural sequence
luciferase expression relative to control constructs (in words) [2]: restored to the level of Con 1

B8: DHFR_Con15ss_HP15: DHFR_Con15ss with 15 bp hairpin embedding the 5′ss; SEQ ID NO: 54 (nucleic acid)
DNA: GAGTAACGCTGTTTCTCTAACTTGTAGGAATGAATTCAGATATTTCCAGAGAATGACCACAACCTCTTCAGTAGAGGGTGAGTTGGCGAAAGCCAACTCACCCTCT
modifications: expressed or natural sequence
luciferase expression relative to control constructs (in words) [2]: allows luciferase expression | luciferase expression relative to control constructs (in words) ([2]; listed as DHFR_Con 15ss_HP15): completely restores luciferase expression to the level of Con 1

B9: DHFR_Con15ss_HP15x: 15 bp hairpin with broken stem; SEQ ID NO: 55 (nucleic acid)
DNA: B8 DNA with G92A, C93A, A96G, T98A, C99T, C101A, C102A, C103G, C105A
modifications: expressed or natural sequence
luciferase expression relative to control constructs (in words) [2]: not able to restore luciferase expression; also recorded: does not restore luciferase expression

B10: 2IR-3: xpt-G17 cassette, two intron deletions; SEQ ID NO: 31 (nucleic acid)
DNA: GTGAGTCTATGGGACCCTTGATGTTTTCTTTCCCTGCTCAAATCAGGGTAATTTTGCATTTGTAATTTTAAAAAATGCTTTCTTCTTTTAATATACTTTTTTGTTTATCTTATTTCTAATACTTTCCCTAATCTCTTTCTTTCAGGGCAATAATGATACAATGTATCATGCCGAGTAACGCTGTTTCTCTAACTTGTAGGAATGAATTCAGATATTTCCAGAGAATGAAAAAAAAATCTTCAGTAGAAGGTAATGTATAATCGCGTGGATATGGCACGCAAGTTTCTACCGGGCACCGTAAATGTCCGACTACATTACGCACCATTCTAAAGAATAACAGTGATAATTTCTGGGTTAAGGCAATAGCTGCTGAGGTTTCATATTGCTAATAGCAGCTACAATCCAGCTACCATTCTGCTTTTATTTTATGGTTGGGATAAGGCTGGATTATTCTGAGTCCAAGCTAGGCCCTTTTGCTAATCATGTTCATACCTCTTATCTTCCTCCCACAG
modifications: xpt-G17-2IR-3
fold induction of luciferase expression over un-induced baseline [1]: 4744 fold | regulation of luciferase expression by guanine (in words) ([1]; with or without 500 μM guanine): significant increase in the fold of target gene expression

B11: Con 4: luciferase with IVS2Δ, weak 5′ss; SEQ ID NO: 4 (nucleic acid)
DNA: AAGAGCTGTTTCTGAGGAGGTGTGGCTATGGGACCCTTGATGTTTTCTTTCCCCTTCTTTTCTATGGTTAAGTTCATGTCATAGGAAGGGGAGAAGTAACAGGGTACACATATTGACCAAATCAGGGTAATTTTGCATTTGTAATTTTAAAAAATGCTTTCTTCTTTTAATATACTTTTTTGTTTATCTTATTTCTAATACTTTCCCTAATCTCTTTCTTTCAGGGCAATAATGATACAATGTATCATGCCTCTTTGCACCATTCTAAAGAATAACAGTGATAATTTCTGGGTTAAGGCAATAGCAATATTTCTGCATATAAATATTTCTGCATATAAATTGTAACTGATGTAAGAGGTTTCATATTGCTAATAGCAGCTACAATCCAGCTACCATTCTGCTTTTATTTTATGGTTGGGATAAGGCTGGATTATTCTGAGTCCAAGCTAGGCCCTTTTGCTAATCATGTTCATACCTCTTATCTTCCTCCCACAGCCTTCAGGATTACAAGATTCAA
modifications: Luci-IVS-Luci in construct Con4
luciferase expression relative to control constructs (in words) [2]: significantly reduce luciferase expression

B12: DHFR_wtmtSRp40_HP15: DHFR_wtmtSRp40 with 5′ss in hairpin; SEQ ID NO: 56 (nucleic acid)
DNA: GAGTAACGCTGTTTCTCTAACTTGTAGGAATGAATTCAGATATTTCCAGAGAATGAAAAAAAAATCTTCAGTAGAAGGTAATGTGGCGAAAGCCACATTACCTTCT
modifications: expressed or natural sequence
luciferase expression relative to control constructs (in words) [2]: restored luciferase expression

B13: DHFR_wtmtSRp40_HP15x: DHFR_wtmtSRp40 with broken hairpin; SEQ ID NO: 57 (nucleic acid)
DNA: B12 DNA with G92A, C93A, C96G, T98A, T99C, A100T, C101G, C102A, T103G, C105A
modifications: expressed or natural sequence
luciferase expression relative to control constructs (in words) [2]: blocked luciferase expression; also recorded: prevents expression of luciferase
